{"source": "patent US6689868", "about": "(Dana-Farber, dated 2004)", "binders": {"B1": {"name": "CD2BP1 protein (endogenous, activated human T cells) (other)", "chain": "MMPQLQFKDAFWCRDFTAHTGYEVLLQRLLDGRKMCKDMEELLRQRAQAEERYGKELVQIARKAGGQTEINSLRASFDSLKQQMENVGSSHIQLALTLREELRSLEEFRERQKEQRKKYEAVMDRVQKSKLSLYKKAMESKKTYEQKCRDADDAEQAFERISANGHQKQVEKSQNKARQCKDSATEAERVYRQSIAQLEKVRAEWEQEHRTTCEAFQLQEFDRLTILRNALWVHSNQLSMQCVKDDELYEEVRLTLEGCSIDADIDSFIQAKSTGTEPPAPVPYQNYYDREVTPLTSSPGIQPSCGMIKRFSGLLHGSPKTTSLAASAASTETLTPTPERNEGVYTAIAVQEIQGNPASPAQEYRALYDYTAQNPDELDLSAGDILEVILEGEDGWWTVERNGQRGFVPGSYLEKL", "notes": "Endogenous protein"}}, "key": {"[1]": {"target": "SHPTP1 (endogenous, activated human T cells) (human, UniProt P29350 1-595, limits assumed)", "sequence (P29350 whole entry)": "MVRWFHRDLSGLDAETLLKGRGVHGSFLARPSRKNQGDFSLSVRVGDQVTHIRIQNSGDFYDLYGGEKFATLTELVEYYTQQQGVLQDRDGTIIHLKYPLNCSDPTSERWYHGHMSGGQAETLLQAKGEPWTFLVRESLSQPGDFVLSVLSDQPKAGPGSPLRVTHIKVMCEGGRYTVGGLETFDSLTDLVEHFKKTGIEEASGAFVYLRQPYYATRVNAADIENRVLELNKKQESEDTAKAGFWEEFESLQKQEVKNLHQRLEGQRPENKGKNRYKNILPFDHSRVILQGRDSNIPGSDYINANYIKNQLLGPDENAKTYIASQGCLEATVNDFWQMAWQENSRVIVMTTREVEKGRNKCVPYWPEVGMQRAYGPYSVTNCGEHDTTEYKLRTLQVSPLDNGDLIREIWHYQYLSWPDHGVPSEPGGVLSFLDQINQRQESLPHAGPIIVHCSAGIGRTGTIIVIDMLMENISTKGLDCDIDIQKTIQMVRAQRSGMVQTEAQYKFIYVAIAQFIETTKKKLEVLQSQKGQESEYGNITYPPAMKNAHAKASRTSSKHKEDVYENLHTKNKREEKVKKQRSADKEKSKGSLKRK", "experiment": "co-immunoprecipitation with 8C93D8 from activated human T cell lysates, Western blot", "method": "(§1) To identify the protein tyrosine phosphatase associated with CD2BP1, activated human T cells were disrupted in lysis buffer at 30 ×10^6/ml and the supernatant collected as described above. After preclearing with control beads (CNBr activated beads linked to nonspecific mouse IgG at 5 mg/ml, Sigma) overnight, the supernatant was diluted to 10 ×10^6 cells/ml in lysis buffer containing 0.1% bovine serum albumin (BSA). CD2BP1 and any associated molecules were immunoprecipitated by incubation at 4° C. for 3 h with CNBr beads coupled to either anti-CD2BP1 mAb 8C93D8 or, as a control, nonspecific mouse IgG. After two washes in lysis buffer and one wash in TBS, the immunocomplexes on the beads were eluted by heating at 65° C. for 20 min in SDS sample buffer and subjected to 12.5% reducing SDS-PAGE. After electrophoresis, proteins on the gel were transferred to nitrocellulose for Western blotting. The membranes were then probed with different primary antibodies: rabbit anti-human PTP-PEST (CSH8) 1:1000 (Garton and Tonks, 1994), rabbit anti-human FLP (aEN12) 1:1000 (Dosil et al., 1996), goat anti-human SHPTP1 (Santa Cruz) 1:100, rabbit antihuman SHPTP2 (Santa Cruz) 1:100, followed by washing and incubation with the secondary HRPO-conjugated goat anti-rabbit antibody (1:5000) or donkey anti-goat antibody (Santa Cruz) 1:2000, and signals developed by ECL. […]"}, "[2]": {"target": "T1, SHPTP2 (endogenous, activated human T cells) (human, UniProt Q06124 2-593)", "T1 sequence (looked up)": "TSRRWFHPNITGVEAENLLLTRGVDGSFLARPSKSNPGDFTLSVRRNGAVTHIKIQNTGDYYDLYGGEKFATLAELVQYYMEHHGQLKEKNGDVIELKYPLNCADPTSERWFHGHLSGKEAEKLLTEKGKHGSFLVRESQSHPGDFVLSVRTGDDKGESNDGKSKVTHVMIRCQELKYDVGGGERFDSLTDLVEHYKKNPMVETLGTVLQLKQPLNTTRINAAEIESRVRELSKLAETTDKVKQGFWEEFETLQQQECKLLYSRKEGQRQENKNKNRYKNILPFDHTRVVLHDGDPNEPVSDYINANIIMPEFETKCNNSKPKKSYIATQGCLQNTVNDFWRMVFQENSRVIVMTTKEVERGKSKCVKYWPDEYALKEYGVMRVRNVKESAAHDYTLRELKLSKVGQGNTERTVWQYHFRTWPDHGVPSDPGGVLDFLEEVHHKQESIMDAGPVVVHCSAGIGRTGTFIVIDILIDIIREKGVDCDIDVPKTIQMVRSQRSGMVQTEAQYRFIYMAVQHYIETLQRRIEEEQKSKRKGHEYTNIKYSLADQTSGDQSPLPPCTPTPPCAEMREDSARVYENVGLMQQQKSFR", "experiment": "co-immunoprecipitation with 8C93D8 from activated human T cell lysates, Western blot", "method": "as §1"}}}
{"binder": "B1", "values": [{"measurement": "binding result", "setting": "[1]", "value": "no binding"}, {"measurement": "binding result", "setting": "[2]", "value": "no binding"}]}
